Sequences and labels used below:
B1: anti-IL-6 antibody, heavy chain G66D / light chain WT (antibody, human IgG1, V domains shown)
VH: EVQLVESGGGLVQPGGSLRLSCAASGFTFSPFAMSWVRQAPGKGLEWVAKISPGGSWTYYSDTVTDRFTFSLDTSKSTAYLQMNSLRAEDTAVYYCARQLWGYYALDIWGQGTLVTVSS
VL: DIQLTQSPSSLSASVGDRVTITCSASISVSYMYWYQQKPGKAPKLLIYDMSNLASGVPSRFSGSGSGTDFTLTISSLQPEDFATYYCMQWSGYPYTFGQGTKVEIK
notes: Derived as m2; Engineered human IgG1
B2: anti-IL-6 antibody, heavy chain T63K, G66D / light chain WT (antibody, human IgG1, V domains shown)
VH: B1 VH with T63K
VL: B1 VL
notes: as for B1
B3: anti-IL-6 antibody, heavy chain S35H, G66D / light chain WT (antibody, human IgG1, V domains shown)
VH: B1 VH with S35H
VL: B1 VL
notes: as for B1
B4: anti-IL-6 antibody, heavy chain T63E, G66D / light chain WT (antibody, human IgG1, V domains shown)
VH: B1 VH with T63E
VL: B1 VL
notes: as for B1
B5: anti-IL-6 antibody, heavy chain T65A, G66D / light chain WT (antibody, human IgG1, V domains shown)
VH: B1 VH with T65A
VL: B1 VL
notes: as for B1
B6: anti-IL-6 antibody, heavy chain T65R, G66D / light chain WT (antibody, human IgG1, V domains shown)
VH: B1 VH with T65R
VL: B1 VL
notes: as for B1
B7: anti-IL-6 antibody, heavy chain T63R, G66D / light chain WT (antibody, human IgG1, V domains shown)
VH: B1 VH with T63R
VL: B1 VL
notes: as for B1
B8: anti-IL-6 antibody, heavy chain T65D, G66D / light chain WT (antibody, human IgG1, V domains shown)
VH: B1 VH with T65D
VL: B1 VL
notes: as for B1
B9: anti-IL-6 antibody, heavy chain T65G, G66D / light chain WT (antibody, human IgG1, V domains shown)
VH: B1 VH with T65G
VL: B1 VL
notes: as for B1
B10: anti-IL-6 antibody, heavy chain T65L, G66D / light chain WT (antibody, human IgG1, V domains shown)
VH: B1 VH with T65L
VL: B1 VL
notes: as for B1
B11: anti-IL-6 antibody, heavy chain T63V, G66D / light chain WT (antibody, human IgG1, V domains shown)
VH: B1 VH with T63V
VL: B1 VL
notes: as for B1
B12: anti-IL-6 antibody, heavy chain T65P, G66D / light chain WT (antibody, human IgG1, V domains shown)
VH: B1 VH with T65P
VL: B1 VL
notes: as for B1
B13: anti-IL-6 antibody, heavy chain T63P, G66D / light chain WT (antibody, human IgG1, V domains shown)
VH: B1 VH with T63P
VL: B1 VL
notes: as for B1
B14: anti-IL-6 antibody, heavy chain T65Y, G66D / light chain WT (antibody, human IgG1, V domains shown)
VH: B1 VH with T65Y
VL: B1 VL
notes: as for B1
B15: anti-IL-6 antibody, heavy chain T63H, G66D / light chain WT (antibody, human IgG1, V domains shown)
VH: B1 VH with T63H
VL: B1 VL
notes: as for B1
B16: anti-IL-6 antibody, heavy chain T63W, G66D / light chain WT (antibody, human IgG1, V domains shown)
VH: B1 VH with T63W
VL: B1 VL
notes: as for B1
B17: anti-IL-6 antibody, heavy chain T65V, G66D / light chain WT (antibody, human IgG1, V domains shown)
VH: B1 VH with T65V
VL: B1 VL
notes: as for B1
B18: anti-IL-6 antibody, heavy chain T63G, G66D / light chain WT (antibody, human IgG1, V domains shown)
VH: B1 VH with T63G
VL: B1 VL
notes: as for B1
B19: anti-IL-6 antibody, heavy chain T65K, G66D / light chain WT (antibody, human IgG1, V domains shown)
VH: B1 VH with T65K
VL: B1 VL
notes: as for B1
B20: anti-IL-6 antibody, heavy chain T63S, G66D / light chain WT (antibody, human IgG1, V domains shown)
VH: B1 VH with T63S
VL: B1 VL
notes: as for B1
B21: anti-IL-6 antibody, heavy chain T63I, G66D / light chain WT (antibody, human IgG1, V domains shown)
VH: B1 VH with T63I
VL: B1 VL
notes: as for B1
B22: anti-IL-6 antibody, heavy chain T63F, G66D / light chain WT (antibody, human IgG1, V domains shown)
VH: B1 VH with T63F
VL: B1 VL
notes: as for B1
B23: anti-IL-6 antibody, heavy chain T65E, G66D / light chain WT (antibody, human IgG1, V domains shown)
VH: B1 VH with T65E
VL: B1 VL
notes: as for B1
B24: anti-IL-6 antibody, heavy chain T65H, G66D / light chain WT (antibody, human IgG1, V domains shown)
VH: B1 VH with T65H
VL: B1 VL
notes: as for B1
B25: anti-IL-6 antibody, heavy chain T63Y, G66D / light chain WT (antibody, human IgG1, V domains shown)
VH: B1 VH with T63Y
VL: B1 VL
notes: as for B1
B26: anti-IL-6 antibody, heavy chain T65F, G66D / light chain WT (antibody, human IgG1, V domains shown)
VH: B1 VH with T65F
VL: B1 VL
notes: as for B1
B27: anti-IL-6 antibody, heavy chain T65W, G66D / light chain WT (antibody, human IgG1, V domains shown)
VH: B1 VH with T65W
VL: B1 VL
notes: as for B1
B28: anti-IL-6 antibody, heavy chain T63L, G66D / light chain WT (antibody, human IgG1, V domains shown)
VH: B1 VH with T63L
VL: B1 VL
notes: as for B1
B29: anti-IL-6 antibody, heavy chain T65S, G66D / light chain WT (antibody, human IgG1, V domains shown)
VH: B1 VH with T65S
VL: B1 VL
notes: as for B1

Numbering of substitutions follows the chain as printed. Numbers in names are those of the source.

In one test the target is T1, human IL-6 (human, UniProt P05231 30-212).
T1 construct: also called interleukin-6
T1 sequence (P05231 30-212 limits assumed): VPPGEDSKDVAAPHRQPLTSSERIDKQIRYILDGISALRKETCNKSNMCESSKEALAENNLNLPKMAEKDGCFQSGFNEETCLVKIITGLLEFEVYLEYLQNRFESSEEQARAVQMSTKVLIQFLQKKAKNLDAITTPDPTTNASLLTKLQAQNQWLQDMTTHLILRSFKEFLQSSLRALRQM
Description: SPR (Biacore T200), purified antibody captured on Protein A, IL-6 flowed over, 37 C. The protocol:
(§1) Antibodies were captured on a Protein A chip (GE) by injecting 1:20 cell supernatant dilutions at 10 μL/min for 60 seconds. […] The sensor chip was regenerated by a 60 seconds injection of 10 mM Glycine pH 1.7 at the flow rate of […]. […] For this setup, 1 μg/mL of purified antibody was injected over a Protein A chip at 10 μL/min for 25 seconds. […] The sensor chip was regenerated by a 60 seconds injection of 10 mM Glycine pH 1.7 at flow rate of 50 μL/min. Data analysis for supernatant and purified samples were performed using BIAevaluation software (GE). All sensorgrams were double reference subtracted and fit using a 1:1 Langmuir binding model.
On the technique in general: In SPR one partner is held on a chip, and binding of the other changes the refractive index at the surface.
One may read the Kd as the equilibrium constant for the complex coming apart. A low value points to higher affinity. By koff is commonly meant a measure of how fast the partners let go of each other. Lower therefore signals slow dissociation. As a reminder, the kon is a measure of how fast the partners come together. Low values mean slower complex formation, high ones faster complex formation. For B1, the Kd is 0.113 nM, the koff is 0.000178 s⁻¹ and the on-rate (kon) is 1.57e+06 M⁻¹ s⁻¹.
On to B2, for which the affinity, expressed as Kd, was 0.161 nM; the koff stood at 0.000235 s⁻¹; the kon amounted to 1.46e+06 M⁻¹ s⁻¹.
In the same order, the values of B3 are 0.105 nM, 0.000185 s⁻¹ and 1.77e+06 M⁻¹ s⁻¹.
In the same order, the values of B4 are 0.147 nM, 0.000252 s⁻¹ and 1.72e+06 M⁻¹ s⁻¹.

The target of the next test is T1, human IL-6. Description: SPR (Biacore T200), antibody from cell supernatant captured on Protein A, IL-6 flowed over, 37 C. The procedure:
Those four positions were selected based on their tolerance for mutations as observed in bacterial and mammalian screens. […] These cultures were centrifuged and supernatants containing secreted antibodies were harvested and diluted in HBS-EP+ running buffer (1:20 ratio).
as §1
Turning to B1, the Kd came to 0.215 nM, the off-rate constant (koff) was determined as 0.000392 s⁻¹ and the kon is 1.83e+06 M⁻¹ s⁻¹.
Molecule B5 displayed a Kd of 0.222 nM, an off-rate constant (koff) of 0.000364 s⁻¹ and a kon of 1.64e+06 M⁻¹ s⁻¹.
For the molecule B6, the Kd was 0.222 nM, the koff turned out to be 0.000444 s⁻¹ and the kon was 2e+06 M⁻¹ s⁻¹.
The corresponding values for B7 are 0.173 nM, 0.00046 s⁻¹ and 2.66e+06 M⁻¹ s⁻¹.
The corresponding values for B8 are 0.203 nM, 0.000442 s⁻¹ and 2.18e+06 M⁻¹ s⁻¹.
Regarding B9, the dissociation constant (Kd) stood at 0.123 nM, the koff amounted to 0.000218 s⁻¹ and the kon is 1.77e+06 M⁻¹ s⁻¹.
The corresponding values for B10 are 0.212 nM, 0.000375 s⁻¹ and 1.77e+06 M⁻¹ s⁻¹.
In turn, B11 yielded a dissociation constant (Kd) of 0.217 nM, a koff of 0.000399 s⁻¹ and a kon of 1.84e+06 M⁻¹ s⁻¹.
B2 showed a Kd of 0.185 nM, a dissociation rate constant (koff) of 0.000461 s⁻¹ and a kon of 2.49e+06 M⁻¹ s⁻¹.
B12 gave a dissociation constant (Kd) of 0.369 nM, a koff of 0.000568 s⁻¹ and a kon of 1.54e+06 M⁻¹ s⁻¹.
With B13, binding was characterised by a dissociation constant (Kd) of 0.21 nM, the off-rate constant (koff) was found to be 0.000436 s⁻¹ and the kon stood at 2.08e+06 M⁻¹ s⁻¹.
Take B14: the dissociation constant (Kd) is 0.224 nM, the koff was found to be 0.000361 s⁻¹ and the association rate constant (kon) amounted to 1.61e+06 M⁻¹ s⁻¹.
B3: binding was characterised by a dissociation constant (Kd) of 0.136 nM, the dissociation rate constant (koff) was 0.000397 s⁻¹ and the on-rate (kon) was determined as 2.92e+06 M⁻¹ s⁻¹.
The corresponding values for B15 are 0.213 nM, 0.00042 s⁻¹ and 1.98e+06 M⁻¹ s⁻¹.
The molecule B16 showed an equilibrium dissociation constant (Kd) of 0.251 nM, a koff of 0.000427 s⁻¹ and a kon of 1.7e+06 M⁻¹ s⁻¹.
In the same order, the values of B17 are 0.175 nM, 0.000504 s⁻¹ and 2.88e+06 M⁻¹ s⁻¹.
In the same order, the values of B18 are 0.213 nM, 0.000397 s⁻¹ and 1.86e+06 M⁻¹ s⁻¹.
The molecule B19 registered an equilibrium dissociation constant (Kd) of 0.262 nM, an off-rate constant (koff) of 0.000412 s⁻¹ and a kon of 1.57e+06 M⁻¹ s⁻¹.
The corresponding values for B20 are 0.184 nM, 0.000464 s⁻¹ and 2.52e+06 M⁻¹ s⁻¹.
The molecule B21 displayed a Kd of 0.211 nM, a koff of 0.000373 s⁻¹ and a kon of 1.77e+06 M⁻¹ s⁻¹.
As to B22, the Kd is 0.221 nM, the koff is 0.000401 s⁻¹ and the kon came to 1.81e+06 M⁻¹ s⁻¹.
For B23, the dissociation constant (Kd) amounted to 0.194 nM, the dissociation rate constant (koff) was determined as 0.000427 s⁻¹ and the on-rate (kon) worked out at 2.2e+06 M⁻¹ s⁻¹.
In the same order, the values of B24 are 0.219 nM, 0.000356 s⁻¹ and 1.63e+06 M⁻¹ s⁻¹.
The corresponding values for B25 are 0.21 nM, 0.000383 s⁻¹ and 1.82e+06 M⁻¹ s⁻¹.
The corresponding values for B26 are 0.223 nM, 0.000348 s⁻¹ and 1.56e+06 M⁻¹ s⁻¹.
As for B27, binding was characterised by a dissociation constant (Kd) of 0.226 nM, the koff turned out to be 0.00037 s⁻¹ and the on-rate (kon) worked out at 1.64e+06 M⁻¹ s⁻¹.
In the same order, the values of B28 are 0.21 nM, 0.000363 s⁻¹ and 1.73e+06 M⁻¹ s⁻¹.
The corresponding values for B4 are 0.178 nM, 0.000464 s⁻¹ and 2.61e+06 M⁻¹ s⁻¹.
In the same order, the values of B29 are 0.21 nM, 0.000383 s⁻¹ and 1.82e+06 M⁻¹ s⁻¹.

These data come from US20240368267A1 (KODIAK SCIENCES, published 2024).
